This passage reports Kd results from US20200317768A1 (published 2020).

Positions count from the first letter of the chain named.

In experiment [1] the target is T1, cynomolgus monkey FcγRIIIaS extracellular domain, His-tagged (cynomolgus monkey, UniProt Q8SPW2 21-206 at identity 1.00)).
T1 construct: also called cyno FcγRIIIaS; cynoFcγRIIIaS
T1 chain: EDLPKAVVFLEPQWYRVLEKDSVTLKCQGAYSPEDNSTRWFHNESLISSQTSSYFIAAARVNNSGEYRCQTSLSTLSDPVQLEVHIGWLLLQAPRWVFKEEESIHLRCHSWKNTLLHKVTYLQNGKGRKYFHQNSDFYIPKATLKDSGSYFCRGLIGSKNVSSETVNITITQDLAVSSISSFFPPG
Kind of experiment: SPR, antibody captured, FcgR analyte. As to the method: (§1) The kinetic analysis of interactions between these antibodies and FcγR was carried out using BIACORE® T200 or BIACORE® 4000 (GE Healthcare). HBS-EP+ (GE Healthcare) was used as the running buffer, and the measurement temperature was set to 25° C. A chip produced by immobilizing Protein A. Protein A/G or mouse anti-human IgG kappa light chain (BD Biosciences) onto a Series S Sensor Chip CM4 or CM5 (GE Healthcare) by the amine-coupling method was used. […] After the measurement, the antibody captured on the chip was washed off by allowing reaction with 10 mM glycine-HCl, pH1.5 and 25 mM NaOH so that the chip was regenerated and used repeatedly. The sensorgrams obtained as measurement results were analyzed by the 1:1 Langmuir binding model using the BIACORE® Evaluation Software to calculate the binding rate constant ka (L/mol/s) and dissociation rate constant kd (l/s), and the dissociation constant KD (mol/L) was calculated from these values. […] Regarding such interactions, KD values were calculated using the following 1:1 binding model described in BIACORE® T100 Software Handbook BR1006-48 Edition AE.
(§2) The behavior of interacting molecules according to the 1:1 binding model on BIACORE® can be described by Equation 1: Req=C·R max/(KD+C)+RI, wherein, Req is a plot of steady-state binding levels to analyte concentration. C is concentration, RI is bulk refractive index contribution in the sample, and Rmax is analyte binding capacity of the surface. When this equation is rearranged, KD can be expressed as Equation 2: KD=C·Rmax/(Req−RI)−C. KD can be calculated by substituting the values of Rmax, RI, and C into Equation 1 or Equation 2. From the current measurement conditions, RI=0, C=2 μmol/L can be used.

Experiment [2] concerns the target T2, human FcγRIIIaV extracellular domain, His-tagged (human, UniProt P08637 17-208).
T2 construct: also called FcgRIIIaV
Kind of experiment: SPR, antibody captured, FcgR analyte. As to the method:
as §1, §2
(In general: Surface plasmon resonance follows binding to a sensor surface in real time, without labels.)

The target of experiment [3] is T3, human FcγRIIb extracellular domain, His-tagged (human, UniProt P31994 43-217).
T3 construct: also called FcgRIIb (human)
T3 sequence: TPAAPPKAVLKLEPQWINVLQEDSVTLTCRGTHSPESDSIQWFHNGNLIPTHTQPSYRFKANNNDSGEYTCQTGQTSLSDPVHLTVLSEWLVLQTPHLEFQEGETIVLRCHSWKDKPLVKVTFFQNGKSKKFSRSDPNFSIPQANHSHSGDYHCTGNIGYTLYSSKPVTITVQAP
The experiment can be described thus: SPR, antibody captured, FcgR analyte. As to the method:
as §1, §2

Experiment [4] addresses T4, human FcγRIIaH extracellular domain, His-tagged (human, UniProt P12318 34-217).
T4 construct: also called human FcγRIIa (type H); FcgRIIaH
T4 sequence: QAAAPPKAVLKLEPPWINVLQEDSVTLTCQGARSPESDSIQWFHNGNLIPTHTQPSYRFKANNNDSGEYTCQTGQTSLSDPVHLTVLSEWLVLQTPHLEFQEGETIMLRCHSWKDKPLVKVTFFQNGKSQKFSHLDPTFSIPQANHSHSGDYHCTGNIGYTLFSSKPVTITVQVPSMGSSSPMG
Kind of experiment: SPR, antibody captured, FcgR analyte. As to the method:
as §1, §2

The target in experiment [5] is T5, cynomolgus monkey FcγRIIa1 extracellular domain, His-tagged (cynomolgus monkey).
T5 construct: also called cyno FcγRIIa1; cynoFcgRIIa1
T5 chain: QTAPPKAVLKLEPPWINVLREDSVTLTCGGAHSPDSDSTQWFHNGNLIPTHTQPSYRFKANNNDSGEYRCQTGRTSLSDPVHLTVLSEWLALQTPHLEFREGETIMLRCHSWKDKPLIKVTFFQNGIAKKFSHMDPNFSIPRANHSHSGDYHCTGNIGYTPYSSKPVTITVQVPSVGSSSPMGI
The experiment can be described thus: SPR, antibody captured, FcgR analyte. As to the method:
as §1, §2

The target of experiment [6] is T6, cynomolgus monkey FcγRIIa3 extracellular domain, His-tagged (cynomolgus monkey).
T6 construct: also called cyno FcγRIIa3; cynoFcgRIIa3
T6 chain: T5 chain with P95T, T121A, A128S, H133P, D135N
Kind of experiment: SPR, antibody captured, FcgR analyte. As to the method:
as §1, §2

Experiment [7] addresses T7, human FcγRIIaR extracellular domain, His-tagged (human, UniProt P12318 34-217).
T7 construct: also called human FcγRIIa (type R); FcgRIIaR
T7 chain: T4 sequence with H134R
The experiment can be described thus: SPR, antibody captured, FcgR analyte. As to the method: as §1, §2

The target in experiment [8] is T8, cynomolgus monkey FcγRIIa2 extracellular domain, His-tagged (cynomolgus monkey).
T8 construct: also called cyno FcγRIIa2; cynoFcgRIIa2
T8 chain: T5 chain with P95T, T121A, I127K, A128S, K130N, D135N, R142Q
Kind of experiment: SPR, antibody captured, FcgR analyte. As to the method:
as §1, §2

The target in experiment [9] is T9, human FcγRIIaR extracellular domain, C-terminal His-tag (human, UniProt P12318 34-217).
T9 construct: also called human FcγRIIa (type R); FcgRIIaR; not shown: His-tag added to C-terminus
T9 chain: T4 sequence with H134R
The experiment can be described thus: SPR (Biacore), antibody captured, FcgR analyte, 25 C. As to the method: as §1, §2

In experiment [10] the target is T10, human FcγRIIIaV extracellular domain, C-terminal His-tag (human, UniProt P08637 17-208).
T10 construct: also called FcgRIIIaV; not shown: His-tag added to C-terminus
T10 sequence (P08637 17-208 F176V): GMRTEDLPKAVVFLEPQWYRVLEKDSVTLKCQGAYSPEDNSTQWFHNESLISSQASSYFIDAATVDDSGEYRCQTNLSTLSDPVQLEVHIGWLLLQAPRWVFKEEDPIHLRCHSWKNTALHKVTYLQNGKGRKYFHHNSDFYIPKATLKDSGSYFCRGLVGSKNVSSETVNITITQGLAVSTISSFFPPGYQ
The experiment is described as above. As to the method:
as §1, §2

Experiment [11] has as its target T11, cynomolgus monkey FcγRIIb extracellular domain, C-terminal His-tag (cynomolgus monkey).
T11 construct: also called cyno FcγRIIb; cynoFcγRIIb; not shown: His-tag added to C-terminus
T11 chain: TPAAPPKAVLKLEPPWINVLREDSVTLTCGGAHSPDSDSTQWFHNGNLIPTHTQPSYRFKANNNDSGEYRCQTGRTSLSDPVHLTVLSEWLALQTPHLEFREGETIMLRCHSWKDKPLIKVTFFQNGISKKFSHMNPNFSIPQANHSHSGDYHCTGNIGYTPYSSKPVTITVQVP
Described as above. As to the method:
as §1, §2

Experiment [12] has as its target T12, cynomolgus monkey FcγRIIIaS extracellular domain, C-terminal His-tag (cynomolgus monkey, UniProt A3RFZ7 21-206 (rhesus entry)).
T12 construct: also called cyno FcγRIIIaS; cynoFcγRIIIaS; not shown: His-tag added to C-terminus
The description is as above. As to the method:
as §1, §2

The target in experiment [13] is T13, cynomolgus monkey FcγRIIa1 extracellular domain, C-terminal His-tag (cynomolgus monkey).
T13 construct: also called cyno FcγRIIa1; cynoFcgRIIa1; not shown: His-tag added to C-terminus
T13 chain: T5 chain
Described as above. As to the method:
as §1, §2

For experiment [14], the target named is T14, cynomolgus monkey FcγRIIa2 extracellular domain, C-terminal His-tag (cynomolgus monkey).
T14 construct: also called cyno FcγRIIa2; cynoFcgRIIa2; not shown: His-tag added to C-terminus
T14 chain: T5 chain with P95T, T121A, I127K, A128S, K130N, D135N, R142Q
The experiment is described as above. As to the method: as §1, §2

Experiment [15] addresses T15, human FcγRIIaH extracellular domain, C-terminal His-tag (human, UniProt P12318 34-217).
T15 construct: also called human FcγRIIa (type H); FcgRIIaH; not shown: His-tag added to C-terminus
T15 sequence: T4 sequence
The description is as above. As to the method:
as §1, §2

The target in experiment [16] is T16, cynomolgus monkey FcγRIIa3 extracellular domain, C-terminal His-tag (cynomolgus monkey).
T16 construct: also called cyno FcγRIIa3; cynoFcgRIIa3; not shown: His-tag added to C-terminus
T16 chain: T5 chain with P95T, T121A, A128S, H133P, D135N
The experiment is described as above. As to the method: as §1, §2

Experiment [17] has as its target T17, human FcγRIIb extracellular domain, C-terminal His-tag (human, UniProt P31994 43-217).
T17 construct: also called FcgRIIb (human); not shown: His-tag added to C-terminus
T17 sequence: T3 sequence
The experiment is described as above. As to the method: as §1, §2

In experiment [18] the target is T18, cynomolgus monkey FcγRIIb extracellular domain, His-tagged (cynomolgus monkey).
T18 construct: also called cyno FcγRIIb; cynoFcγRIIb
T18 chain: T11 chain
The experiment can be described thus: SPR, antibody captured, FcgR analyte. As to the method:
as §1, §2

T2 sequence (P08637 17-208 F176V): as the sequence (P08637 17-208 F176V) above

B1: M103205H795-MY015/M103202L889-SK1 (antibody, human IgG1, kappa)
heavy: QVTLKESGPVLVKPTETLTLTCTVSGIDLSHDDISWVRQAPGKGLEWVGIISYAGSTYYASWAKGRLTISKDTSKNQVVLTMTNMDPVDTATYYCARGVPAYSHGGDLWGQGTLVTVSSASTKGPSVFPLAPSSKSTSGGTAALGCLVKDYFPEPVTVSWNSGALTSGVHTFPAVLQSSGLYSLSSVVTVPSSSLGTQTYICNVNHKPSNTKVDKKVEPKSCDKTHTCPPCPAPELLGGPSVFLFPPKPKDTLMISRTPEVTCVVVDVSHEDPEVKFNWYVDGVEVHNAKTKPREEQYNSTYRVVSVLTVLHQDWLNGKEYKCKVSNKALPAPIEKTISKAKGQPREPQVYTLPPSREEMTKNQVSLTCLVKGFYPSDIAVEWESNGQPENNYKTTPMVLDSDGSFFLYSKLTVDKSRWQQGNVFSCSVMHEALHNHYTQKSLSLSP
light: DIVMTQSPATLSLSPGERATLSCTSSQSVYHANWLSWFQQKPGQPPKLLIYWASTLAYGVPSRFSGSGSGTDFTLTISSLQPEDAATYYCAGGYGGGRYAFGQGTKVEIKRTVAAPSVFIFPPSDEQLKSGTASVVCLLNNFYPREAKVQWKVDNALQSGNSQESVTEQDSKDSTYSLSSTLTLSKADYEKHKVYACEVTHQGLSSPVTKSFNRGEC
notes: Substitution put into M103205H795-SG1
Turning to B1, the Kd came out at 100 nM in [1]; 240 nM in [2]; 1600 nM in [3]; 330 nM in experiment [4]; 1300 nM in experiment [5]; 4700 nM in experiment [6]. Besides, the equilibrium dissociation constant (Kd) in experiment [7] was 320 nM; in experiment [8], 1500 nM.

B2: M103205H795-MY329/M103202L889-SK1 (antibody, human IgG1, kappa)
heavy: QVTLKESGPVLVKPTETLTLTCTVSGIDLSHDDISWVRQAPGKGLEWVGIISYAGSTYYASWAKGRLTISKDTSKNQVVLTMTNMDPVDTATYYCARGVPAYSHGGDLWGQGTLVTVSSASTKGPSVFPLAPSSKSTSGGTAALGCLVKDYFPEPVTVSWNSGALTSGVHTFPAVLQSSGLYSLSSVVTVPSSSLGTQTYICNVNHKPSNTKVDKKVEPKSCDKTHTCPPCPAPELLDGPSVFLFPPKPKDTLMISRTPEVTCVVVDVSDEDPEVKFNWYVDGVEVHNAKTKPREELYNSTYRVVSVLTVLHQDWLNGKEYKCKVSNKALPKPIEKTISKAKGQPREPQVYTLPPSREEMTKNQVSLTCLVKGFYPSDIAVEWESNGQPENNYKTTPPVLDSDGSFFLYSKLTVDKSRWQQGNVFSCSVMHEALHNHYTQKSLSLSP
light: B1 light
B2: the Kd in experiment [9] is 210 nM; in experiment [10], 6400 nM; in [11] it was 590 nM; in [12], 2300 nM; in experiment [13], 1900 nM; in experiment [14], 3200 nM. Moreover, the Kd in experiment [15] is 270 nM; in [16], 3700 nM; in experiment [17] it was 160 nM.

B3: M103205H795-MY325/M103202L889-SK1 (antibody, human IgG1, kappa)
heavy: B2 heavy with L297Q
light: B1 light
Regarding B3, the dissociation constant Kd was found to be 300 nM in experiment [9]; 8100 nM in experiment [10]; 950 nM in experiment [11]; 4000 nM in [12]; 4000 nM in experiment [13]; 4400 nM in [14]. Further, the Kd in experiment [15] amounted to 510 nM; in experiment [16] it was 5800 nM; in [17] it was 260 nM.

B4: M103205H795-MY066/M103202L889-SK1 (antibody, human IgG1, kappa)
heavy: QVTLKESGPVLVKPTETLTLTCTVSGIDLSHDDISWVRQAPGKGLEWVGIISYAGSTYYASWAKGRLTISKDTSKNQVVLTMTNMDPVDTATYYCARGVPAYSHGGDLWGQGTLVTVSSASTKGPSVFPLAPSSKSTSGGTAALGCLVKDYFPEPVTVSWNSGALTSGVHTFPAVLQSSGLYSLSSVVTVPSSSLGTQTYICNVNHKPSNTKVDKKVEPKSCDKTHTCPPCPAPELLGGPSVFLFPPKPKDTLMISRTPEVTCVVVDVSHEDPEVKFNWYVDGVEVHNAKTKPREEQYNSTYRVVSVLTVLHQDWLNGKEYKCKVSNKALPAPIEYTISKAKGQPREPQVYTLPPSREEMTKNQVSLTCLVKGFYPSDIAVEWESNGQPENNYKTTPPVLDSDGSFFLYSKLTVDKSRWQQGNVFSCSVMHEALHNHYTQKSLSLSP
light: B1 light
notes: as for B1
As to B4, the dissociation constant (Kd) in experiment [1] turned out to be 160 nM; in experiment [2], 290 nM; in experiment [3] it was 2800 nM; in [4] it was 640 nM; in experiment [5], 2100 nM; in experiment [6], 5700 nM. The results for the Kd in experiment [7], in experiment [18] and in experiment [8] were 970 nM, 1400 nM and 2800 nM, respectively.

B5: M103205H795-MY067/M103202L889-SK1 (antibody, human IgG1, kappa)
heavy: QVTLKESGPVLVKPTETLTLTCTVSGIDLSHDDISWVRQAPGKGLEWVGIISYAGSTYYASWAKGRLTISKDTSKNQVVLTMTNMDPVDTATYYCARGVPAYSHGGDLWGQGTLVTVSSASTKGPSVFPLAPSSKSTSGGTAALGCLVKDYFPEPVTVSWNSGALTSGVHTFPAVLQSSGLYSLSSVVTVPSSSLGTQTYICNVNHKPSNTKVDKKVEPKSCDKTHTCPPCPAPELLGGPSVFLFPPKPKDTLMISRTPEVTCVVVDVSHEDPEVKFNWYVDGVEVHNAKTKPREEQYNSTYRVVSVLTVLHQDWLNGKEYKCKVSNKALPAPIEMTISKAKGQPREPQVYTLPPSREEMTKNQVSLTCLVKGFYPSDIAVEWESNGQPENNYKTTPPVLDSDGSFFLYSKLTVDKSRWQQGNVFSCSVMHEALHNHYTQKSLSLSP
light: B1 light
notes: as for B1
For B5, the equilibrium dissociation constant (Kd) in experiment [1] came to 100 nM; in experiment [2] it was 200 nM; in experiment [3], 2800 nM; in [4], 530 nM; in experiment [5], 2100 nM; in [6], 6700 nM. Moreover, the Kd in [7] worked out at 760 nM; in experiment [18], 1100 nM; in [8], 2300 nM.

B6: M103205H795-MY327/M103202L889-SK1 (antibody, human IgG1, kappa)
heavy: B2 heavy with D270E
light: B1 light
For the molecule B6, the Kd in [9] is 200 nM; in [10], 9900 nM; in experiment [11], 1000 nM; in experiment [12] it was 4300 nM; in experiment [13], 3400 nM; in [14] it was 4800 nM. The Kd is 350 nM in [15], 5300 nM in [16] and 170 nM in experiment [17].

A word on the Kd: it is the concentration at which binding is half-saturated.
